To fix the notation:
B1: TPR t1 (parent)
chain: GACCAAUCUGCCCUCAGAGCUCGAGAACAUCUUCGGAUGCAGAGGAGGCAGGCUUCGGUGGCGCGAUAGCGCCAACGUCCUCAACCUCCAAUGCAUCCCACCACAUGAUGAUGCCUGAAGAGCCUUGGUUUUUUG

The results in this text go back to the RNAGym collection of RNA variant scans (doi:10.1073/pnas.2313332121).

In this data set the parent is B1. In words: polymerase ribozyme fitness, log enrichment relative to wild type (log ratio); higher = more active; in vitro selection for triplet polymerase activity. Summed up:
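Mutant libraries of both subunits of a heterodimeric triplet polymerase ribozyme were PCR-built, transcribed, and selected once in triplicate, with frozen incubation at −7 °C and capture of gel-excised extended constructs on streptavidin beads before RT-PCR. Illumina sequencing of input and output libraries was filtered to genotypes with ≥10 input reads and ≥1 read per output. Fitness is the logarithm of genotype enrichment over wild-type enrichment, using inverse-variance-weighted replicate averages. The logarithm is base 2.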
Take A5G C13G G51A U112C: the “polymerase ribozyme fitness (log ratio)” value is -1.39.
The result for A5U C20A U33A A37G C49G G52A U78A A111U reads -5.53.
The result for A5U A27G G60U reads -4.01.
Under A6C A18U A50C G77U U87A stands -3.65.
Consider A5G C114A, for which the “polymerase ribozyme fitness (log ratio)” value was -1.2.
Under A6C C8A A66U C85U stands -1.77; under A6C A108G C115U, -5.
Under A5U C72G U106C stands -0.417.
Under A6C A105G U112C G127A stands -2.69; under A5G G36U G48A G61C G122U C123U, -1.93; under A5G C13U G42U C76A, -2.01.
In the case of A5U C12U U21A A84G, the “polymerase ribozyme fitness (log ratio)” value was -2.37.
Under A5U C11U stands -1.46.
As for A5U C11G, the “polymerase ribozyme fitness (log ratio)” value is -0.477.
Under A5G A83G G110A stands -2.14.
For the variant A5G C22G C73G G93U G110A, the “polymerase ribozyme fitness (log ratio)” value is -6.4.
Under A5U C72U stands -0.719.
For A6C A29U C49A A66C G71C A119U, the “polymerase ribozyme fitness (log ratio)” value is -4.4.
The result for A5U G63A reads -0.665; that for A5U G63U, -1.8.
Under A5U A6U U9G C28A C34A G60A A121C stands -6.95; under A5U C49G C70A, -3.06.
A5U C49G C70G: the “polymerase ribozyme fitness (log ratio)” value was -4.62.
Under A5U U7G A43U G71U A83C stands -2.36; under A6C C12U U38G C80U, -1.42; under A5U A18C A111C, -2.56.
Under A5G U38G G39C stands -3.2.
Under A5U A66C G113U C124A stands -4.62; under A5G A111G C123A G128U, -2.99; under A5G A18U A103U C114A G120U, -3.91.
Turning to A5G A26C C72U U87A G120U U130A, the “polymerase ribozyme fitness (log ratio)” value is -3.99.
Under A5U G44A C56U G117A stands -3.69; under A5U A6U C20U G69A U81A G113A, -2.02; under A5U C28U C72A U78C, -1.78.
Under A5U C12A C22G A27C U38G A111U stands -2.81.
On to A5U A46U U81A, for which the “polymerase ribozyme fitness (log ratio)” value was -2.98.
On to A6C C15G A46C G107U G117C, for which the “polymerase ribozyme fitness (log ratio)” value was -4.61.
Take A5G G35A U78A C101U: the “polymerase ribozyme fitness (log ratio)” value is -3.77.
The result for A5G C34G G69U C82G reads -2.92.
Take A5U G63U U133A: the “polymerase ribozyme fitness (log ratio)” value is -2.34.
A5U C13G G44C: the “polymerase ribozyme fitness (log ratio)” value was -2.74.
Under A5G C8U G63U C70A C86G stands 0.268.
Under A5U U9G G36A G39A U96G stands -5.14; under A5G C13U A43U G71A C124U, -1.48; under A5G U78C C80A, -2.8.
As to A5G C88A G107A C114U, the “polymerase ribozyme fitness (log ratio)” value is -3.65.
As for A5U G113A, the “polymerase ribozyme fitness (log ratio)” value was -1.04.
As for A5U G113C, the “polymerase ribozyme fitness (log ratio)” value is -2.11.
The result for A5U A46C C53U U96G C102U reads -4.66; that for A5U G63A U125A, -2.08; that for A5U G113U C124A, -3.25.
The result for A5U C8U A46G G60U A66U reads -1.11; that for A6C C13G G69A, -3.82; that for A6C A68G, -3.13.
The result for A6C A43G G63U G69A G117C reads -5.96; that for A5U U21C C97U, -1.38; that for A5U A18C G113A A118U U131A, -4.6.
Consider A5U G113A G122A G127C, for which the “polymerase ribozyme fitness (log ratio)” value is -3.33.
Regarding A5U C40U C88A C101A A121U, the “polymerase ribozyme fitness (log ratio)” value was found to be 0.119.
Under A5G G42U C56G A91C C115G stands -3.59; under A5G U9A A27G C53U U126A U133A, -3.09; under A5U C12G G58C A90U C124G G128A, -2.47.
Under A5G C12G C34U C72A A95C stands -5.52; under A5U C53A C88A C98A U109A, -5.9; under A5U A6U U7G C8U G36A A121C, 0.985.
The result for A5U A43G G44A G52C C124U G128U reads -4.6; that for A5G A6U G61C A66U, -1.7.
For A5U A91U, the “polymerase ribozyme fitness (log ratio)” value was -3.29.
On to A5U C53A C104U G113C, for which the “polymerase ribozyme fitness (log ratio)” value is -1.6.
Under A5U stands -0.135.
Regarding A5G, the “polymerase ribozyme fitness (log ratio)” value was -0.0211.
The result for A5U U14G A41U G60C C115U reads -4.57.
The result for A5C U125G reads -0.516; that for A5U G57A G63U C89G U112C U126A, -3.35.
The result for A5U C72U U81C reads -0.617; that for A5U U21A, 0.185.
In the case of A5U C64U C85G C86U U109A C124G U133G, the “polymerase ribozyme fitness (log ratio)” value was -6.39.
On to A5U C12U G71U, for which the “polymerase ribozyme fitness (log ratio)” value was -0.82.
The result for A5U C13G G63A C89U U92A G120A reads -5.85; that for A5U A95C, -1.24; that for A5U A41U C82G G120A U125G, -2.77.
Take A5U U125A U133G: the “polymerase ribozyme fitness (log ratio)” value was -0.817.
Under A5G G60C G69A stands -5.79.
